In the supplement of paper PMC9112550, “Optimization of the antimicrobial peptide Bac7 by deep mutational scanning” (BMC Biology, 2022):

Test system: Escherichia coli TOP10
Experiment: shrunken log2 fold change of peptide-encoding DNA abundance (4.5 h post-induction vs induction); higher = less antimicrobial activity (less host growth inhibition)
Conditions: time post-induction: 4.5 h; library: site-saturation at positions 5, 18, 19, 20
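Note: peptides expressed intracellularly from a pBAD plasmid library in pooled LB shake-flask culture, induced with 0.3% L-arabinose, DNA abundance read by NGS, three biological replicates, DESeq2 with apeglm shrinkage.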

Row | Sequence | shrunken log2 fold change
1 | RRIRARPPRLPRPRPRPCSIPRP | -0.092
2 | RRIRPRPPRLPRPRPRPRIDPRP | -0.0848
3 | RRIRFRPPRLPRPRPRPKGRPRP | -0.0884
4 | RRIRTRPPRLPRPRPRPGNTPRP | -0.0393
5 | RRIRSRPPRLPRPRPRPLRNPRP | 1.38
6 | RRIRKRPPRLPRPRPRPRIYPRP | -0.0634
7 | RRIRTRPPRLPRPRPRPHVDPRP | 0.0574
8 | RRIRPRPPRLPRPRPRPQFNPRP | -0.5
9 | RRIRCRPPRLPRPRPRPSLVPRP | -0.399
10 | RRIRARPPRLPRPRPRPKIHPRP | -0.0619
11 | RRIRVRPPRLPRPRPRPMAAPRP | 0.287
12 | RRIRMRPPRLPRPRPRPVPEPRP | 1.21
13 | RRIRKRPPRLPRPRPRPPSIPRP | 0.0697
14 | RRIRDRPPRLPRPRPRPDFPPRP | 0.0974
15 | RRIRPRPPRLPRPRPRPDNWPRP | -0.121
16 | RRIRTRPPRLPRPRPRPWWSPRP | -0.143
17 | RRIRGRPPRLPRPRPRPHTLPRP | -0.22
18 | RRIRGRPPRLPRPRPRPLKVPRP | 0.271
19 | RRIRHRPPRLPRPRPRPSRSPRP | -0.202
20 | RRIRQRPPRLPRPRPRPELIPRP | -0.017
21 | RRIRFRPPRLPRPRPRPVLFPRP | -0.172
22 | RRIRWRPPRLPRPRPRPKSVPRP | -0.0882
23 | RRIRMRPPRLPRPRPRPSVQPRP | 0.296
24 | RRIRNRPPRLPRPRPRPKRIPRP | -0.107
25 | RRIRRRPPRLPRPRPRPPKIPRP | 0.403

Row | Sequence | shrunken log2 fold change
26 | RRIRIRPPRLPRPRPRPSQNPRP | -0.766
27 | RRIRPRPPRLPRPRPRPKFKPRP | 0.0351
28 | RRIRPRPPRLPRPRPRPAEHPRP | 0.214
29 | RRIRQRPPRLPRPRPRPYNNPRP | -1.04
30 | RRIRDRPPRLPRPRPRPAAPPRP | 0.545
31 | RRIRMRPPRLPRPRPRPACWPRP | 1.06
32 | RRIRVRPPRLPRPRPRPQIRPRP | -0.305
33 | RRIRRRPPRLPRPRPRPLESPRP | 0.0173
34 | RRIRSRPPRLPRPRPRPEKCPRP | -0.0875
35 | RRIRGRPPRLPRPRPRPRAFPRP | 0.793
36 | RRIRFRPPRLPRPRPRPWAMPRP | -0.0609
37 | RRIRQRPPRLPRPRPRPGLSPRP | 0.0405
38 | RRIRGRPPRLPRPRPRPTHKPRP | 0.854
39 | RRIRSRPPRLPRPRPRPHPIPRP | -0.214
40 | RRIRFRPPRLPRPRPRPPSYPRP | -0.0274
41 | RRIRWRPPRLPRPRPRPLCGPRP | 1.71
42 | RRIRYRPPRLPRPRPRPTRVPRP | 0.303
43 | RRIRFRPPRLPRPRPRPGKLPRP | -0.0682
44 | RRIRHRPPRLPRPRPRPHKVPRP | -0.299
45 | RRIRKRPPRLPRPRPRPKHDPRP | 0.133
46 | RRIRARPPRLPRPRPRPHMDPRP | 0.281
47 | RRIRERPPRLPRPRPRPLRAPRP | 0.348
48 | RRIRNRPPRLPRPRPRPQFCPRP | -0.0424
49 | RRIRVRPPRLPRPRPRPFSYPRP | -0.012
50 | RRIRLRPPRLPRPRPRPEDPPRP | 0.0223

Row | Sequence | shrunken log2 fold change
51 | RRIRRRPPRLPRPRPRPRPIPRP | 0.945
52 | RRIRVRPPRLPRPRPRPGGYPRP | 0.0682
53 | RRIRWRPPRLPRPRPRPVVFPRP | 0.0685
54 | RRIRGRPPRLPRPRPRPCCIPRP | 0.214
55 | RRIRERPPRLPRPRPRPPLGPRP | 0.0751
56 | RRIRARPPRLPRPRPRPPADPRP | 1.42
57 | RRIRSRPPRLPRPRPRPWGVPRP | -0.412
58 | RRIRIRPPRLPRPRPRPENAPRP | -0.0916
59 | RRIRHRPPRLPRPRPRPNTNPRP | -0.74
60 | RRIRVRPPRLPRPRPRPMRCPRP | 0.204
61 | RRIRMRPPRLPRPRPRPWIPPRP | -0.205
62 | RRIRKRPPRLPRPRPRPGQMPRP | 0.00812
63 | RRIRPRPPRLPRPRPRPTNWPRP | 0.214
64 | RRIRCRPPRLPRPRPRPKMSPRP | 0.157
65 | RRIRVRPPRLPRPRPRPDAYPRP | -0.056
66 | RRIRLRPPRLPRPRPRPHIMPRP | -0.531
67 | RRIRQRPPRLPRPRPRPKEHPRP | -0.117
68 | RRIRERPPRLPRPRPRPCTNPRP | -0.559
69 | RRIRERPPRLPRPRPRPNMKPRP | -0.6
70 | RRIRHRPPRLPRPRPRPTSWPRP | 0.091
71 | RRIRIRPPRLPRPRPRPHHIPRP | -0.641
72 | RRIRNRPPRLPRPRPRPYKGPRP | -1.13
73 | RRIRCRPPRLPRPRPRPPYEPRP | -0.306
74 | RRIRHRPPRLPRPRPRPVSKPRP | -0.0396
75 | RRIRLRPPRLPRPRPRPCIAPRP | -0.185
